Measured values taken from article PMC5730154.

Molecular target: T1, PamR (YdcH) (Bacillus subtilis 168) (UniProt P96625)
T1 sequence: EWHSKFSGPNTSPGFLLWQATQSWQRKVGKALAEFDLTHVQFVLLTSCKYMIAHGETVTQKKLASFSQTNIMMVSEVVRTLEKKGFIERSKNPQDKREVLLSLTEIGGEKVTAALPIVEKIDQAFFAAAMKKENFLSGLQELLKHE
Experiment: EMSA
Settings: 20 mM NaPO4 pH 7, 50 mM NaCl, 5 mM MgCl2, 10% glycerol, 0.1 ug/ul salmon sperm DNA, 10 min at room temperature; 4% native acrylamide gel

| Sequence | binding |
| --- | --- |
| AATGTTCCTTCCGTTCCATTTTGAAATTGTCCTTTCAAAGAATCTGATGCAATACCCGTCTCCCATTGATCCATTGTTTCTGTTTCCTGATAACAGTTCCAGGTTTTCCCACATCCACATCAGCTATCGCTGTGTATTCATAATTCCACATCCCATAAGCTCCCAGAATGATAAGTTCACTTATTAATTATAATAAGCGCACTTATTAATAGTCAACCGCAAAAAAAAGAAGCCGGATGTCCAGCTTCTTTTTCTGGTTTTTTAGGACAGCTGTCCGAGAATATAGGTCAGGT (double strand) [PydcF wt 293 bp] | binds |
| ACCTGACCTATATTCTCGGACAGCTGTCCTAAAAAACCAGAAAAAGAAGCTGGACATCCGGCTTCTTTTTTTTGCGGTTGACTATATTATTCTGCGCTTATTATAATTAATAAGTGAACTTATCATTCTGGGAGCTTATGGGATGTGGAATTATGAATACACAGCGATAGCTGATGTGGATGTGGGAAAACCTGGAACTGTTATCAGGAAACAGAAACAATGGATCAATGGGAGACGGGTATTGCATCAGATTCTTTGAAAGGACAATTTCAAAATGGAACGGAAGGAACATT (double strand) [PydcF IR1* mutant] | binds more weakly |
